Measurements published in patent US20240301069A1.

Assays:
[1] = target: human PD-L1 full-length protein on CHO-hPD-L1 stable cells (human) (UniProt Q9NZQ7); assay: flow cytometry, antibody titration on CHO-hPD-L1 cells, MFI-APC
[2] = target: macaque PD-L1 on CHO-cynoPD-L1 stable cells (macaque); assay: flow cytometry, antibody titration on CHO-cynoPD-L1 cells, MFI-APC
[3] = target: human PD-L1 on IFNγ-stimulated A375 cells (human) (UniProt Q9NZQ7); assay: flow cytometry, antibody titration on human IFNγ-stimulated A375 cells, MFI-APC
[4] = target: human PD-L1 full-length protein on CHO-hPD-L1 stable cells (human) (UniProt Q9NZQ7); assay: flow cytometry blocking assay: antibody titrated on CHO-hPD-L1 cells; blocked ligand recombinant human CD80-hFc
[5] = target: human PD-L1 full-length protein on CHO-hPD-L1 stable cells (human) (UniProt Q9NZQ7); assay: flow cytometry blocking assay (method 1): antibody titrated on CHO-hPD-L1 cells; blocked ligand recombinant human PD-1-hFc
[6] = target: recombinant human PD-L1 protein carrying a hFc label (human) (UniProt Q9NZQ7); assay: flow cytometry blocking assay (method 2): antibody titrated; binding of recombinant human PD-L1-hFc to PD-1 on CHO-hPD-1 cells is blocked
recombinant human PD-L1 protein carrying a hFc label (human), sequence (Q9NZQ7 19-238): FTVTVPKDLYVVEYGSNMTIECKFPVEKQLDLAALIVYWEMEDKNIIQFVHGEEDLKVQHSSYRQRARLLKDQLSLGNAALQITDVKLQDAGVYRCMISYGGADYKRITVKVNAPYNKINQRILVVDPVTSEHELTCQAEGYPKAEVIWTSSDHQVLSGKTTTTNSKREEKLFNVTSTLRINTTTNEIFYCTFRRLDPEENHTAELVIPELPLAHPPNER

human PD-L1 full-length protein on CHO-hPD-L1 stable cells (human), sequence (Q9NZQ7 19-290 limits assumed): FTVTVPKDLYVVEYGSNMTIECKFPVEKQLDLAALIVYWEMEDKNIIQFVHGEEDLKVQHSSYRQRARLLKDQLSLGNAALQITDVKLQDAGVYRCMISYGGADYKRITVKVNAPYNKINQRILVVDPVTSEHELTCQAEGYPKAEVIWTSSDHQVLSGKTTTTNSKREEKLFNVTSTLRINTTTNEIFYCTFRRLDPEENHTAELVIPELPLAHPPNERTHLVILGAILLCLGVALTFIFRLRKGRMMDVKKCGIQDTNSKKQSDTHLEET
macaque PD-L1 on CHO-cynoPD-L1 stable cells (macaque), sequence (Q9NZQ7 other isoform, or with tags, fused parts or gaps limits assumed): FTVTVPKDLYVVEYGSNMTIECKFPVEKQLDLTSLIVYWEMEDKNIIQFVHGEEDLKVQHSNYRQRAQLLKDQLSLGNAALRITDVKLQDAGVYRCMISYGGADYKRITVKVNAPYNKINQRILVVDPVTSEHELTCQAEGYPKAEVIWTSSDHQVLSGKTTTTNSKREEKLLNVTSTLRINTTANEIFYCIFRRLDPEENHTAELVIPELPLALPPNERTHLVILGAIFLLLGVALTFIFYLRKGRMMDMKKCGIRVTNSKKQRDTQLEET
human PD-L1 on IFNγ-stimulated A375 cells (human), sequence (Q9NZQ7 19-290): as the sequence (Q9NZQ7 19-290 limits assumed) above

EC50 [1]: 0.984 nM
EC50 [2]: 2.02 nM
EC50 [3]: 0.121 nM
IC50 [4]: 4.39 nM
IC50 [5]: 6.32 nM
IC50 [6]: 1.61 nM
Substance: atezolizumab-mIgG1 (mIgG1 subtype) (antibody)
